The values below come from the supplement of paper PMC12764529.

± gives the half width of the 95% confidence interval.

One data set can be described thus: folding stability dG unfold from chymotrypsin proteolysis; higher = more stable. The protocol: (§1)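 Folding stability of de novo designed mini-proteins (<80 aa, no Cys; designed by TrROS, TrMRF, ProteinMPNN and the joint model) was measured by cDNA display proteolysis with trypsin and chymotrypsin. Each protease was used at 11 concentrations in a threefold dilution series plus a no-protease condition. K50 was inferred by Bayesian fitting of sequencing counts, and dG unfold was derived against a sequence-predicted unfolded-state K50 (Tsuboyama et al. method). Sequences shown include variable-length N-terminal GS-type padding (SAGGSAGG...) inside a display construct carrying a PA tag. Rows were kept only if the AF2 dimer inter-PAE was >15, to exclude likely homo-oligomers.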
As to “MPSVTLPVTLVLDTRRPDGRPLTPEQVRALAEAAVRELAEATGVDVEADVTVTPLGPEGRAVVDVVVTVRPS [r1_231_TrMRF]”, the “folding stability dG unfold” value came to 0.746 ± 0.1 kcal/mol. Still for that read-out and setting: the value for “MTEKKEESLGEKKRITTTKPQEDGNPVVTERIIDPNGTIEKVIVKKSSPNKPTTEELPPFSTSNKEIVEKLS [r1_301_JUSTAS]” was -0.691 ± 0.14 kcal/mol; that for “MTTETLEEEEIPEEGIRIETVRTTDASGKPSTETVVTYEEVPLEPENTAPPVKFDDKGKRYNPGIGLEGLDS [r1_270_JUSTAS]” was -0.664 ± 0.24 kcal/mol. “NIRFPDGREIEIPPEPGEEYEIMLPNGPEIKIKKIKYENGEPTIEIERKDGGKKEHEMPPNQPDQILDAIRS [r1_66_TrROS]”: the “folding stability dG unfold” value was 0.421 ± 0.051 kcal/mol. For the sequence “NYRVEIDDMELFPAPPGQEIRIPLKVEDDGQEHELEEIQVNPDDGYITMKVKIEPDGEPKEFTITIPIPPGS [r1_47_TrROS]”, the “folding stability dG unfold” value is 0.158 ± 0.52 kcal/mol. “RTISIDEIREKLGMDPDDLKNMPMEEIADEIRDELPPGRAKGVKISPNEDDGMWTITVKYKNGRPVEITIDS [r1_340_TrROS]”: the “folding stability dG unfold” value was 0.671 ± 0.16 kcal/mol.

Consider “SADTLTVSDLMHKLMEEERKKNPEPWSPEDMQEWAKTAARKLADKEGIPIKDVEVEPTDGYPSITVKVPSAG [r14_147_TrROS]”, for which the “folding stability dG unfold” value is -0.691 ± 0.73 kcal/mol. Turning to “SAGATESETFALPGGEEVTVTTTYTPLPGDALRTTVTTWTTTLGPSGPAVTTATTTTTYPPELAAAGASAGG [r19_63_JUSTAS]”, the “folding stability dG unfold” value stood at 0.0387 ± 0.14 kcal/mol. In the case of “SAGEVEKITLTIVVEDPNMTLEEILKKALEALGLKEEDVEVKIVSIKEETLPDGRKLTVIEVEITVPKPSAG [r5_528_TrROS_Hall]”, the “folding stability dG unfold” value amounted to 3.43 ± 0.26 kcal/mol. Turning to “SAGGMRFRVRLFRPGRWLPPREVEPGAEAALRELPADVPFVVIEFDDPRGRRRVFFRSPEELRRAVAASAGG [r13_299_TrMRF]”, the “folding stability dG unfold” value is 0.379 ± 0.66 kcal/mol.

For “SAGGSAGGSAGGAEELLENGRLRIEWPNGRTHTIDLDDGKIEPPPGFPPDNIRRVEIVPPSAGGSAGGSAGG [r7_566_TrROS]”, the “folding stability dG unfold” value came to 0.444 ± 0.24 kcal/mol. On the same count and under the same terms, to “SAGGSAGGSAGGNIVDRLQERFPNFPPKSVDVKMNPNGNRSVDIKFDGPPEMRDALLELSAGGSAGGSAGGS [r10_1089_TrROS]” belongs 0.128 ± 0.059 kcal/mol; to “SAGGSAVKITVEEREIIVPPEEDPLAENNPGIVVKKKTVKYEKEMTPEEKEKFLKEIEEKTGIKIISAGGSA [r15_347_JUSTAS]”, -0.162 ± 0.24 kcal/mol.

As for “SAGGSAVTAEWILDHMRDMGMPEEDVKIDDVQLEREPDKVVIRIEITMRHPNDGKQRRMDMEIPLPSAGGSA [r15_863_TrROS]”, the “folding stability dG unfold” value was -0.164 ± 0.34 kcal/mol. Consider “SAMKVIVKIKIYDKNGKLVKEIEIPAEILEKDPEKLKELAEKLAEELKKKGYKVEIELVEVVPVEEEEESAG [r14_972_TrROS_Hall]”, for which the “folding stability dG unfold” value amounted to 4.5 ± 0.41 kcal/mol. “SKKFQIYNPDEGQPFQIEVDPEDGKVTVEWPNGEEEEAPVKDIEIDPGHGWIKIKHPGKEVTIRIPPDMFSA [r9_325_TrROS]”: the “folding stability dG unfold” value was 0.00862 ± 0.44 kcal/mol.

The next data set can be described thus: folding stability dG unfold (combined trypsin and chymotrypsin); higher = more stable. Here is the method: as §1
Consider “MPSVTLPVTLVLDTRRPDGRPLTPEQVRALAEAAVRELAEATGVDVEADVTVTPLGPEGRAVVDVVVTVRPS [r1_231_TrMRF]”, for which the “folding stability dG unfold” value came out at 0.201 ± 0.14 kcal/mol. Still for that read-out and setting: to “MTEKKEESLGEKKRITTTKPQEDGNPVVTERIIDPNGTIEKVIVKKSSPNKPTTEELPPFSTSNKEIVEKLS [r1_301_JUSTAS]” belongs -0.821 ± 0.4 kcal/mol. Same read-out and setting: to “MTTETLEEEEIPEEGIRIETVRTTDASGKPSTETVVTYEEVPLEPENTAPPVKFDDKGKRYNPGIGLEGLDS [r1_270_JUSTAS]” belongs less than -1 kcal/mol; to “NIRFPDGREIEIPPEPGEEYEIMLPNGPEIKIKKIKYENGEPTIEIERKDGGKKEHEMPPNQPDQILDAIRS [r1_66_TrROS]”, 0.0319 ± 0.29 kcal/mol; to “RTISIDEIREKLGMDPDDLKNMPMEEIADEIRDELPPGRAKGVKISPNEDDGMWTITVKYKNGRPVEITIDS [r1_340_TrROS]”, 0.156 ± 0.37 kcal/mol. On the same count and under the same terms, the value for “SADTLTVSDLMHKLMEEERKKNPEPWSPEDMQEWAKTAARKLADKEGIPIKDVEVEPTDGYPSITVKVPSAG [r14_147_TrROS]” was less than -1 kcal/mol. Take “SAGATESETFALPGGEEVTVTTTYTPLPGDALRTTVTTWTTTLGPSGPAVTTATTTTTYPPELAAAGASAGG [r19_63_JUSTAS]”: the “folding stability dG unfold” value is -0.807 ± 0.24 kcal/mol.

As for “SAGKIKEIEMDPPHNQMTLELPEKGRKITINPNMGHLDIEPPDGKPREVPVPNPSDMKEAIKKVLKELKSAG [r5_467_TrROS]”, the “folding stability dG unfold” value is less than -1 kcal/mol.

Regarding “SAGKIRIVDSPDQLENAPPGDIVIHHRPSPETGRPRVRLAKYPDGKWEPLARMDSDGKIELPKELKEAISAG [r5_490_TrROS]”, the “folding stability dG unfold” value was less than -1 kcal/mol.

On to “SAGKPRPIINIEWQPNPDGQPNLTISVMRRDPKNGDMKPREYTIDPGADPEDLIKKALDEGADYVSIHPSAG [r5_37_TrROS]”, for which the “folding stability dG unfold” value is less than -1 kcal/mol. Regarding “SAGMKPGEPIMTIKIKVKDPDNGKEVPINIPVRYQYDNGEPKRPISPDDALEEAKDLADRLKKDPNIKISAG [r5_426_TrROS]”, the “folding stability dG unfold” value was less than -1 kcal/mol. Same read-out and setting: to “SAGMMVLVRNKNGETVPLEDMTEEQLKNMDIEEVEILPPPEIKVEEEVKVDENGNLTVKKKIEIKIEFSAGG [r19_232_TrROS_Hall]” belongs less than -1 kcal/mol; to “SAGMPELVEFPFPIPPEFPDIPPETLAKLIAEELNEEEFSVEVKSYDPEKPIVTLTVTKDGKPVAEFTDSAG [r5_80_TrMRF]”, less than -1 kcal/mol; to “SAGMPVTTVTLYTTDPATGTPTATPGPISDVLALLKREGLPVEREEYDPSPQTHTVYSKGPGKDYIVAGSAG [r5_521_JUSTAS]”, less than -1 kcal/mol.

For the sequence “SAGMTIPVTSPEEARQVAEELAPEVGKEVTIEEAPPSVSTDNLPSNAIVLVNPDSGVRYVATIKEPDHHSAG [r5_173_JUSTAS]”, the “folding stability dG unfold” value is less than -1 kcal/mol. Consider “SAGPEPIKIKILKMQPNPNGTPMIRVKVVPPDGKPGEIPIPQEMLKEGNLDDMTIDDIAEEFPGLKPVSAGG [r19_74_TrROS]”, for which the “folding stability dG unfold” value is less than -1 kcal/mol. In the case of “SAGPFYVRMKIEVPRKTYDPEDGEPKQEKREIDIWFPMKSEEQARDHADKLAEELPPENVKITDIEPFSAGG [r19_209_TrROS]”, the “folding stability dG unfold” value is less than -1 kcal/mol. The same measure, in the same setting: the value for “SAGPPNDVKPIEIPFKMENGSNFRAEIWRDPGDGKVFVPIEYPNPWHRKRMQNWARELAEEHGIDRVEPSAG [r5_99_TrROS]” was less than -1 kcal/mol. For the sequence “SAGQIRIEIEPNPNGKPKIRITMHNPDGPPREREIPIDPGETVSDIADEFFENGMPIRPGSTIEDLIESAGG [r19_263_TrROS]”, the “folding stability dG unfold” value was less than -1 kcal/mol. As to “SAGSATFTRATTPLPEVTLSWEELEELVKDPNIDSISVHSPTADRTLPAPEGKITGPLAPDQTVTLVGSAGG [r19_152_JUSTAS]”, the “folding stability dG unfold” value is less than -1 kcal/mol. For the sequence “SAGSFEYEFENGSSNRVEVDPENKEVKVEYEPKEGKLIAALPEKGVVLVPIKDKKVEEAAKEVIEKLKKSAG [r5_447_TrMRF]”, the “folding stability dG unfold” value is less than -1 kcal/mol. On the same count and under the same terms, to “SAGSFSVRLTLRAPDGTTETVSGPAAVAAAIAALPADETAESSVPGSSSSSTVTLPAGGTFSLSTLSSSSAG [r5_506_JUSTAS]” belongs less than -1 kcal/mol; to “SAGSMKLLILATSYPPDGSTTTKPIFGTEEDLKAAVEALPDGEKAATIIEVSEEGLKTIKTETRPPSLGSAG [r5_970_JUSTAS]”, less than -1 kcal/mol. Take “SAGSYTVDVSYRVPVRLSPAGAVEVPVEVELKRYLPDGVPLGEEEIEEEEEKLAEEIAKELAEALAPLSAGG [r19_389_JUSTAS]”: the “folding stability dG unfold” value was less than -1 kcal/mol.

For “SAKAKVVEIKEENGKVIIKIEVEDENGNKKTIEIELPKDDIEIVEVDEDKIVIYNKKTGKKITLDLKDLSAG [r14_947_TrROS_Hall]”, the “folding stability dG unfold” value is more than 6 kcal/mol. “SAMPPGAIVKVKIISKERRIDNELGVEVVGYTEKEEDVKVLEVKEPGEKVELKLEIPNLPEGSELELGFSAG [r14_412_TrMRF]”: the “folding stability dG unfold” value was less than -1 kcal/mol. On to “SAMVVPVELEGPVGDLDELKEKTKKEVEEELGLPDDLENITVTVEKIEPLPDPEGKPVTTRIKLKITVKSAG [r14_736_JUSTAS]”, for which the “folding stability dG unfold” value is less than -1 kcal/mol. Take “SAPDLGSGTLLTTESRAVTDPEGNTTWVTRPVVVPVEREYFVTDPETGEWAPLSTYDPATGTLHDPNHHSAG [r14_122_JUSTAS]”: the “folding stability dG unfold” value is less than -1 kcal/mol. Same read-out and setting: the value for “SARLFTIRIQGPPEQLKDALQEEFDMEVNIEPEPNGSTTITFELPPNNYDRFEEALEQLPGFPIEIEPVSAG [r14_521_TrROS]” was less than -1 kcal/mol; that for “SARYKRNPDGKPRREEPVPPKPPTIEIPIPFNMPPDDPEMMKRFAEMIADMLADEHGLPPNVPIHISMNSAG [r14_453_TrROS]” was less than -1 kcal/mol; that for “SATLRDLIKELGFPMDIEHDGDSVKITMRNPDDPNPGQEQTFEIPPPNGKPLKFKIRMRNNGIQEIEPESAG [r14_401_TrROS]” was less than -1 kcal/mol. With “SATVTVETTLSDVDTLLAAAEAAGWAVTRTQEPSSPLRRATITAPLPDGTAAPVTVTVDPASGRAVLVGSAG [r14_169_JUSTAS]”, the “folding stability dG unfold” value is less than -1 kcal/mol. With “SKVDIDVERDPGNGHYEYTVRNPNNGYDIKVRIADMDPEHGPIQVEIEPLDDGKKVHYPMPWDDIKDLIKSA [r9_1221_TrROS]”, the “folding stability dG unfold” value was less than -1 kcal/mol. The same measure, in the same setting: to “SMPYLVRVLAELPDGELLGEAEAEVLPGEELVFSDPLPVRVRAVIYDPETDEPREVEADGRVGVLVVPVESA [r9_272_TrMRF]” belongs less than -1 kcal/mol; to “SMTYTVTKESSVSPLPDGSPVTSTTTTVTAPTEPVTVTTSTSVTPLSTGTSTTTSTTTTTVPPDDPLAASSA [r9_34_JUSTAS]”, less than -1 kcal/mol; to “SMYYVATVIRKKKDGGPYLGPEVRIVESPEEAEEIALEPAPERDYVVELKVEEVPLEELENPEKIKELLESA [r9_864_TrMRF]”, less than -1 kcal/mol. Turning to “SNFYFTIEIERPDPNGEEKKIEITIPMERINQELQEEHGMESPQEAQEYFAKEIAEKFDENGYKVKIEPFSA [r9_868_TrROS]”, the “folding stability dG unfold” value was -0.316 ± 0.52 kcal/mol.

Regarding “SPAIVLATSDPSTRRRTVFVAQSHPPGPAVPDLGFDIPIGDNLYLGASISVSPSGPVNIDSIIVGPPDSLSA [r9_780_TrMRF]”, the “folding stability dG unfold” value was less than -1 kcal/mol. In the case of “SPKIKITEVEPNPGNMEKRTIELPNRPITLYWPPENGYYRVKIEDPDNNKERQIMVPPGQPPEEIAKDLLSA [r9_522_TrROS]”, the “folding stability dG unfold” value was less than -1 kcal/mol. In the case of “SSFKLYKRPDGSPYLTAPVPEKNLKSALDPSTGVPYIATTPGGELGALSLLADSLEELLKLPPLTFTKPGSA [r9_205_JUSTAS]”, the “folding stability dG unfold” value is less than -1 kcal/mol. The same measure, in the same setting: to “SSFKTKITILEERELEPVPDRNGTPNPVRLVTIAVTNLGPESVSPEVVEKVKKEVEEKFKEEGIPVEIKDES [r1_305_JUSTAS]” belongs less than -1 kcal/mol; to “SSVSFDPATGTTTVTTTTPTGPDSPVLTTTTTTLTTNPDGTVTTTTTTTTTTVAPAAPLLTPANLALRAALS [r1_4_JUSTAS]”, less than -1 kcal/mol.
